The chains are these.
B1: CD69 (parent)
chain: FVAENSSLHPESGQENDATSPHFS
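Note: lentivirally expressed fusions sorted by FACS into six bins by GFP to DsRed ratio, PSI derived from sequencing read proportions per bin multiplied by bin number.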

In the data set the parent is B1. In words: protein stability index of a GFP-peptide fusion (GPS, HEK-293T) (PSI 1-6); higher = more stable. The following applies: c terminus: a fixed tail appended.
Take FVAENSSLHPERGQENDATSPHFS [S12R]: the protein stability index was determined as 2.38. On to FVAENSSLHPEFGQENDATSPHFS [S12F], for which the protein stability index is 2.39. With FVAENSSLHPETGQENDATSPHFS [S12T] the figure was 3.14. Then FVAENSSLHPEMGQENDATSPHFS [S12M], with 2.87; and FVAENSSLHPEAGQENDATSPHFS [S12A], with 2.99; and FVAENSSLHPEKGQENDATSPHFS [S12K], with 2.66. Regarding FVAENSSLHPEVGQENDATSPHFS [S12V], the protein stability index is 3.42. Then FVAENSSLHPEPGQENDATSPHFS [S12P], with 3.39; and FVAENSSLHPEWGQENDATSPHFS [S12W], with 1.83; and FVAENSSLHPEGGQENDATSPHFS [S12G], with 2.9. With FVAENSSHHPESGQENDATSPHFS [L8H] the figure was 3.04; with FVAENSSVHPESGQENDATSPHFS [L8V], 3.01; with FVAENSSAHPESGQENDATSPHFS [L8A], 3.41. For FVAENSSKHPESGQENDATSPHFS [L8K], the protein stability index was found to be 2.68. Turning to FVAENSSTHPESGQENDATSPHFS [L8T], the protein stability index is 3.64.

On to FVAENSSPHPESGQENDATSPHFS [L8P], for which the protein stability index came to 3.41. Then FVAENSRLHPESGQENDATSPHFS [S7R], with 2.13. With FVAENSCLHPESGQENDATSPHFS [S7C] the figure was 2.46; with FVAENSTLHPESGQENDATSPHFS [S7T], 3.24; with FVAENSELHPESGQENDATSPHFS [S7E], 4.06. With FVAENSHLHPESGQENDATSPHFS [S7H] the figure was 2.83; with FVAENSFLHPESGQENDATSPHFS [S7F], 2.27. As to FVAENSWLHPESGQENDATSPHFS [S7W], the protein stability index amounted to 3.07. Regarding FVAENSYLHPESGQENDATSPHFS [S7Y], the protein stability index is 1.93.

For FVAENSDLHPESGQENDATSPHFS [S7D], the protein stability index amounted to 4.39. In the case of FVAENSVLHPESGQENDATSPHFS [S7V], the protein stability index was determined as 2.73. With FVAENSSLHPESGQEMDATSPHFS [N16M] the figure was 2.56; with FVAENSSLHPESGQESDATSPHFS [N16S], 3.19.

Consider FVAENSSLHPESGQEHDATSPHFS [N16H], for which the protein stability index worked out at 3. With FVAENSSLHPESGQEWDATSPHFS [N16W] the figure was 2.11; with FVAENSSLHPESGQEFDATSPHFS [N16F], 2.81; with FVAENSSLHPESGQEADATSPHFS [N16A], 2.51. Consider FVAENSSLHPESGQEDDATSPHFS [N16D], for which the protein stability index is 3.61. Consider FVAENSSLHPESGQEIDATSPHFS [N16I], for which the protein stability index was 3.01. With FGAENSSLHPESGQENDATSPHFS [V2G] the figure was 5.26; with FDAENSSLHPESGQENDATSPHFS [V2D], 5.18.

For FKAENSSLHPESGQENDATSPHFS [V2K], the protein stability index stood at 5.4. In the case of FYAENSSLHPESGQENDATSPHFS [V2Y], the protein stability index came to 4.84. Then FWAENSSLHPESGQENDATSPHFS [V2W], with 4.86; and FCAENSSLHPESGQENDATSPHFS [V2C], with 4.82.

Take FHAENSSLHPESGQENDATSPHFS [V2H]: the protein stability index amounted to 4. FTAENSSLHPESGQENDATSPHFS [V2T]: the protein stability index came out at 5.17. For FIAENSSLHPESGQENDATSPHFS [V2I], the protein stability index was found to be 4.44. Then FVAENSSLHPESGQENDATSPWFS [H22W], with 2.72. With FVAENSSLHPESGQENDATSPPFS [H22P] the figure was 3.19; with FVAENSSLHPESGQENDATSPDFS [H22D], 3.79. With FVAENSSLHPESGQENDATSPCFS [H22C] the figure was 2.65.

Turning to FVAENSSLHPESGQENDATSPLFS [H22L], the protein stability index is 2.64. As for FVAENSSLHPESGQENDATSPGFS [H22G], the protein stability index came to 3.33. With FVAENSSLHPESGQENDATSPQFS [H22Q], the protein stability index worked out at 3.76. With RVAENSSLHPESGQENDATSPHFS [F1R] the figure was 5.12; with NVAENSSLHPESGQENDATSPHFS [F1N], 5.39. With CVAENSSLHPESGQENDATSPHFS [F1C] the figure was 5.02; with SVAENSSLHPESGQENDATSPHFS [F1S], 5.4. For PVAENSSLHPESGQENDATSPHFS [F1P], the protein stability index came to 5.51. MVAENSSLHPESGQENDATSPHFS [F1M]: the protein stability index came to 5.49. Then YVAENSSLHPESGQENDATSPHFS [F1Y], with 3.64; and VVAENSSLHPESGQENDATSPHFS [F1V], with 4.96; and EVAENSSLHPESGQENDATSPHFS [F1E], with 5.62. With DVAENSSLHPESGQENDATSPHFS [F1D] the figure was 5.78; with FVAENSSLHPESVQENDATSPHFS [G13V], 3.21; with FVAENSSLHPESSQENDATSPHFS [G13S], 3.31. Then FVAENSSLHPESYQENDATSPHFS [G13Y], with 3.06; and FVAENSSLHPESLQENDATSPHFS [G13L], with 2.49; and FVAENSSLHPESIQENDATSPHFS [G13I], with 2.61. Consider FVAENSSLHPESTQENDATSPHFS [G13T], for which the protein stability index came out at 3.59. Take FVAENSSLHPESPQENDATSPHFS [G13P]: the protein stability index amounted to 3.32. With FVAENSSLHPESWQENDATSPHFS [G13W], the protein stability index was 1.97. Then FVAENSSLHPESHQENDATSPHFS [G13H], with 2.46. As for FVAENSSLHPESGQENDATSPHFK [S24K], the protein stability index was found to be 2.91. Then FVAENSSLHPESGQENDATSPHFF [S24F], with 2.27; and FVAENSSLHPESGQENDATSPHFT [S24T], with 3.27; and FVAENSSLHPESGQENDATSPHFD [S24D], with 3.9. As to FVAENSSLHPESGQENDATSPHFN [S24N], the protein stability index was found to be 2.92.

Regarding FVAENSSLHPESGQENDATSPHFV [S24V], the protein stability index is 2.77. Then FVAENSSLHPESGQENDATSPHFL [S24L], with 3.04; and FVAENSSLHPESGQENDATSPHFM [S24M], with 2.09; and FVAENSSLHPESGQENDATSPHFY [S24Y], with 2.38. Then FVAENSSLHPESGQENDATSPHHS [F23H], with 3.56. With FVAENSSLHPESGQENDATSPHIS [F23I] the figure was 3.46; with FVAENSSLHPESGQENDATSPHLS [F23L], 3.55; with FVAENSSLHPESGQENDATSPHTS [F23T], 3.61. Regarding FVAENSSLHPESGQENDTTSPHFS [A18T], the protein stability index was 2.79. With FVAENSSLHPESGQENDNTSPHFS [A18N] the figure was 3.07. With FVAENSSLHPESGQENDVTSPHFS [A18V] the figure was 3.22; with FVAENSSLHPESGQENDHTSPHFS [A18H], 2.45. With FVAENSSLHPESGQENDMTSPHFS [A18M] the figure was 2.73.

In the case of FVAENSSLHPESGQENDGTSPHFS [A18G], the protein stability index amounted to 3.03. Then FVAENSSLHPESGQENDADSPHFS [T19D], with 3.75; and FVAENSSLHPESGQENDAPSPHFS [T19P], with 2.84. As for FVAENSSLHPESGQENDAFSPHFS [T19F], the protein stability index came to 1.97. Turning to FVAENSSLHPESGQENDAMSPHFS [T19M], the protein stability index worked out at 2.73. Consider FVAENSSLHPESGQENDAASPHFS [T19A], for which the protein stability index came to 3.35. With FVAENSSLHPESGQENDAVSPHFS [T19V] the figure was 2.77.
